T1: human FcγRIIaH extracellular domain, C-terminal His-tag (human, UniProt P12318 34-217)
T1 construct: Soluble extracellular domain expressed in FreeStyle 293 cells; also called FcgRIIaH; human FcγRIIa (type H); not shown: His-tag added to the C-terminus
T1 sequence: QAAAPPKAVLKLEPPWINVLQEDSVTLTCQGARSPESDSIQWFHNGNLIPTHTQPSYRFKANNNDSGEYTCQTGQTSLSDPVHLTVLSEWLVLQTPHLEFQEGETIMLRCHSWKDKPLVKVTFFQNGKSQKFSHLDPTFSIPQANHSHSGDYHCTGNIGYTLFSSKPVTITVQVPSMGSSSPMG

T2: human FcγRIIaR extracellular domain, C-terminal His-tag (human, UniProt P12318 34-217)
T2 construct: Soluble extracellular domain expressed in FreeStyle 293 cells; also called FcgRIIaR; human FcγRIIa (type R); not shown: His-tag added to the C-terminus
T2 chain: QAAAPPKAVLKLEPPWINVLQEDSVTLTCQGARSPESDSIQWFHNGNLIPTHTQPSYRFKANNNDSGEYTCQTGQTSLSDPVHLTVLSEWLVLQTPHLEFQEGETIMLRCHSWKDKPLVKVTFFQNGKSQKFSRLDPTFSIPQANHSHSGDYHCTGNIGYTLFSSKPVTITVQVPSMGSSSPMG

T3: human FcγRIIb extracellular domain, C-terminal His-tag (human, UniProt P31994 43-217)
T3 construct: Soluble extracellular domain expressed in FreeStyle 293 cells; also called FcgRIIb; not shown: His-tag added to the C-terminus
T3 sequence: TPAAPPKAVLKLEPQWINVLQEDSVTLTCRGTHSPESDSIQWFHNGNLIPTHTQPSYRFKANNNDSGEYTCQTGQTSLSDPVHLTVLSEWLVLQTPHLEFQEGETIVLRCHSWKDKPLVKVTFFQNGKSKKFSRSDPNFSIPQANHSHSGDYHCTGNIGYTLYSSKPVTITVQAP


Experiments:
[1] = target: T1, human FcγRIIaH extracellular domain, …; experiment: SPR (BIACORE); KD of SG1 divided by KD of the variant
Experimental: (§1) The kinetic analysis of interactions between these antibodies and FcγR was carried out using BIACORE® T200 or BIACORE® 4000 (GE Healthcare). HBS-EP+ (GE Healthcare) was used as the running buffer, and the measurement temperature was set to 25° C. A chip produced by immobilizing Protein A. Protein A/G or mouse anti-human IgG kappa light chain (BD Biosciences) onto a Series S Sensor Chip CM4 or CM5 (GE Healthcare) by the amine-coupling method was used. […] After the measurement, the antibody captured on the chip was washed off by allowing reaction with 10 mM glycine-HCl, pH1.5 and 25 mM NaOH so that the chip was regenerated and used repeatedly. The sensorgrams obtained as measurement results were analyzed by the 1:1 Langmuir binding model using the BIACORE® Evaluation Software to calculate the binding rate constant ka (L/mol/s) and dissociation rate constant kd (l/s), and the dissociation constant KD (mol/L) was calculated from these values. […] Regarding such interactions, KD values were calculated using the following 1:1 binding model described in BIACORE® T100 Software Handbook BR1006-48 Edition AE.
(§2) Furthermore, the substitutions used in Example 29 for improving antibody half-life and reducing binding to rheumatoid factor were introduced into human FcγRIIb-enhanced Fc variants and their affinity against human FcγRs were analyzed (Table 29). In this SPR analysis, all the data were obtained using mouse anti-human IgG kappa light chain for capturing the antibodies of interest.

[2] = target: T2, human FcγRIIaR extracellular domain, …; experiment: as above
Experimental: as §1, §2

[3] = target: T4, human FcγRIIIaV extracellular domain, C-terminal His-tag (human, UniProt P08637 17-208); experiment: as above
T4 construct: Soluble extracellular domain expressed in FreeStyle 293 cells; also called FcgRIIIaV; not shown: His-tag added to the C-terminus
T4 sequence (P08637 17-208 F176V): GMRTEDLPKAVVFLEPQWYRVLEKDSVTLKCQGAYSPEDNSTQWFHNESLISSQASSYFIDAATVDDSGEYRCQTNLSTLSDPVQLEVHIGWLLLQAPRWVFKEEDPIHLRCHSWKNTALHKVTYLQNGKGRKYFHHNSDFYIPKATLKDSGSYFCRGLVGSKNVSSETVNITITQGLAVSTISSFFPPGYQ
Experimental: as §1, §2

[4] = target: T3, human FcγRIIb extracellular domain, …; experiment: as above
Experimental: as §1, §2

[5] = target: T1, human FcγRIIaH extracellular domain, …; experiment: SPR (BIACORE), antibody captured by mouse anti-human IgG kappa light chain, FcgR extracellular domain as analyte, 25 C
Experimental: as §1, §2

[6] = target: T2, human FcγRIIaR extracellular domain, …; experiment: as above
Experimental: as §1, §2

[7] = target: T4, human FcγRIIIaV extracellular domain, …; experiment: as above
Experimental: as §1, §2

[8] = target: T3, human FcγRIIb extracellular domain, …; experiment: as above
Experimental: as §1, §2

KD fold for humanFcgRs (SG1 = 1) [1] [fold] | KD fold for humanFcgRs (SG1 = 1) [2] [fold] | KD fold for humanFcgRs (SG1 = 1) [3] [fold] | KD fold for humanFcgRs (SG1 = 1) [4] [fold] | Kd [5] [µM] | Kd [6] [µM] | Kd [7] [µM] | Kd [8] [µM] | Binder
0.008 | 0.04 | 0.001 | 4.3 | 130 | 34 | 530 | 1.1 | MS103240H795-TT69/M103202L1045-SK1 (antibody, copies: 2 + 2) heavy: QVQLVESGGGLVQPGGSLRLSCAVSGIDLSHDDISWVRQAPGKGLEWVSIISYAGSTYYASWAKGRLTISKDTSKNQVVLTMTNMDPVDTATYYCARGVPAYSHGGDLWGQGTLVTVSSASTKGPSVFPLAPSSKSTSGGTAALGCLVKDYFPEPVTVSWNSGALTSGVHTFPAVLQSSGLYSLSSVVTVPSSSLGTQTYICNVNHKPSNTKVDKKVEPKSCDKTHTCPPCPAPELLGGDSVFLFPPKPKDVLMISRTPEVTCVVVDVSHEDPEVKFNWYVDGVEVHNAKTKPREEQYNSTYRVVSVLPVLHRDWLNGKEYKCKVSNKALPKPIEKTISKAKGQPREPQVYTLPPSREEMTKNQVSLTCLVKGFYPSDIAVEWESNGQPENNYKTTPPVLDSDGSFFLYSKLTVKKSRWQQGNVFSCSVLHEALHAHTTRKELSLSP light: DIVMTQSPATLSLSPGERATLSCTTSQSVYHENWLSWFQQKPGQPPKLLIYWASTLAYGVPSRFSGSGSGTDFTLTISSLQPEDAATYYCAGGYGGGRYAFGQGTKVEIKRTVAAPSVFIFPPSDEQLKSGTASVVCLLNNFYPREAKVQWKVDNALQSGNSQESVTEQDSKDSTYSLSSTLTLSKADYEKHKVYACEVTHQGLSSPVTKSFNRGEC
0.013 | 0.06 | 0.001 | 11.2 | 74 | 19 | 550 | 0.42 | MS103240H795-TT73/M103202L1045-SK1 (antibody, copies: 2 + 2) heavy: QVQLVESGGGLVQPGGSLRLSCAVSGIDLSHDDISWVRQAPGKGLEWVSIISYAGSTYYASWAKGRLTISKDTSKNQVVLTMTNMDPVDTATYYCARGVPAYSHGGDLWGQGTLVTVSSASTKGPSVFPLAPSSKSTSGGTAALGCLVKDYFPEPVTVSWNSGALTSGVHTFPAVLQSSGLYSLSSVVTVPSSSLGTQTYICNVNHKPSNTKVDKKVEPKSCDKTHTCPPCPAPELLGGDSVFLFPPKPKDVLMISRTPEVTCVVIDVSHEDPEVKFNWYVDGVEVHNAKTKPREEQYNSTYRVVSVLPVLHRDWLNGKEYKCKVSNKALPKPIEKTISKAKGQPREPQVYTLPPSREEMTKNQVSLTCLVKGFYPSDIAVEWESNGQPENNYKTTPPVLDSDGSFFLYSKLTVKKSRWQQGNVFSCSVLHEALHAHTTRKELSLSP light: DIVMTQSPATLSLSPGERATLSCTTSQSVYHENWLSWFQQKPGQPPKLLIYWASTLAYGVPSRFSGSGSGTDFTLTISSLQPEDAATYYCAGGYGGGRYAFGQGTKVEIKRTVAAPSVFIFPPSDEQLKSGTASVVCLLNNFYPREAKVQWKVDNALQSGNSQESVTEQDSKDSTYSLSSTLTLSKADYEKHKVYACEVTHQGLSSPVTKSFNRGEC
0.013 | 0.03 | 0.002 | 12.7 | 72 | 40 | 390 | 0.37 | MS103240H795-TT70/M103202L1045-SK1 (antibody) heavy: QVQLVESGGGLVQPGGSLRLSCAVSGIDLSHDDISWVRQAPGKGLEWVSIISYAGSTYYASWAKGRLTISKDTSKNQVVLTMTNMDPVDTATYYCARGVPAYSHGGDLWGQGTLVTVSSASTKGPSVFPLAPSSKSTSGGTAALGCLVKDYFPEPVTVSWNSGALTSGVHTFPAVLQSSGLYSLSSVVTVPSSSLGTQTYICNVNHKPSNTKVDKKVEPKSCDKTHTCPPCPAPELLGGDSVFLFPPKPKDVLMISRTPEVTCVVIDVSHEDPEVKFNWYVDGVEVHNAKTKPREEQYNSTYRVVSVLPVLHRDWLNGKEYKCKVSNKALPKPIEKTISKAKGQRREPQVYTLPPSREEMTKNQVSLTCLVKGFYPSDIAVEWESNGQPENNYKTTPPVLDSDGSFFLYSKLTVDKSRWQQGNVFSCSVMHEALHAHYTRKELSLSP light: DIVMTQSPATLSLSPGERATLSCTTSQSVYHENWLSWFQQKPGQPPKLLIYWASTLAYGVPSRFSGSGSGTDFTLTISSLQPEDAATYYCAGGYGGGRYAFGQGTKVEIKRTVAAPSVFIFPPSDEQLKSGTASVVCLLNNFYPREAKVQWKVDNALQSGNSQESVTEQDSKDSTYSLSSTLTLSKADYEKHKVYACEVTHQGLSSPVTKSFNRGEC
0.01 | 0.04 | 0.002 | 11.2 | 96 | 27 | 400 | 0.42 | MS103240H795-TT71/M103202L1045-SK1 (antibody) heavy: QVQLVESGGGLVQPGGSLRLSCAVSGIDLSHDDISWVRQAPGKGLEWVSIISYAGSTYYASWAKGRLTISKDTSKNQVVLTMTNMDPVDTATYYCARGVPAYSHGGDLWGQGTLVTVSSASTKGPSVFPLAPSSKSTSGGTAALGCLVKDYFPEPVTVSWNSGALTSGVHTFPAVLQSSGLYSLSSVVTVPSSSLGTQTYICNVNHKPSNTKVDKKVEPKSCDKTHTCPPCPAPELLGGDSVFLFPPKPKDVLMISRTPEVTCVVIDVSHEDPEVKFNWYVDGVEVHNAKTKPREEQYNSTYRVVSVLPVLHRDWLNGKEYKCKVSNKALPKPIEKTISKAKGQRREPQVYTLPPSREEMTKNQVSLTCLVKGFYPSDIAVEWESNGQPENNYKTTPPVLDSDGSFFLYSKLTVDKSRWQQGNVFSCSVLHEALHAHTTRKELSLSP light: DIVMTQSPATLSLSPGERATLSCTTSQSVYHENWLSWFQQKPGQPPKLLIYWASTLAYGVPSRFSGSGSGTDFTLTISSLQPEDAATYYCAGGYGGGRYAFGQGTKVEIKRTVAAPSVFIFPPSDEQLKSGTASVVCLLNNFYPREAKVQWKVDNALQSGNSQESVTEQDSKDSTYSLSSTLTLSKADYEKHKVYACEVTHQGLSSPVTKSFNRGEC
0.012 | 0.05 | 0.001 | 11.8 | 79 | 24 | 500 | 0.4 | MS103240H795-TT72/M103202L1045-SK1 (antibody, copies: 2 + 2) heavy: QVQLVESGGGLVQPGGSLRLSCAVSGIDLSHDDISWVRQAPGKGLEWVSIISYAGSTYYASWAKGRLTISKDTSKNQVVLTMTNMDPVDTATYYCARGVPAYSHGGDLWGQGTLVTVSSASTKGPSVFPLAPSSKSTSGGTAALGCLVKDYFPEPVTVSWNSGALTSGVHTFPAVLQSSGLYSLSSVVTVPSSSLGTQTYICNVNHKPSNTKVDKKVEPKSCDKTHTCPPCPAPELLGGDSVFLFPPKPKDVLMISRTPEVTCVVIDVSHEDPEVKFNWYVDGVEVHNAKTKPREEQYNSTYRVVSVLPVLHRDWLNGKEYKCKVSNKALPKPIEKTISKAKGQPREPQVYTLPPSREEMTKNQVSLTCLVKGFYPSDIAVEWESNGQPENNYKTTPPVLDSDGSFFLYSKLTVKKSRWQQGNVFSCSVMHEALHAHYTRKELSLSP light: DIVMTQSPATLSLSPGERATLSCTTSQSVYHENWLSWFQQKPGQPPKLLIYWASTLAYGVPSRFSGSGSGTDFTLTISSLQPEDAATYYCAGGYGGGRYAFGQGTKVEIKRTVAAPSVFIFPPSDEQLKSGTASVVCLLNNFYPREAKVQWKVDNALQSGNSQESVTEQDSKDSTYSLSSTLTLSKADYEKHKVYACEVTHQGLSSPVTKSFNRGEC

— patent US20200317768A1 (published 2020)
